The source of these data is PMC4519333, “Preclinical Evaluation of a Potential GSH Ester Based PET/SPECT Imaging Probe DT(GSHMe)2 to Detect Gamma Glutamyl Transferase Over Expressing Tumors” (PLoS ONE, 2015).

In data set [1] the test system is EAT cells. As to the kind of experiment: Time course and kinetics of uptake. Format: cell-based, mice. The procedure: EAT cells were isolated from ascitic fluid of BALB/c mice and were diluted to 3 x 10^6 cells/mL. Cells were aliquoted in different micro centrifuge tubes and were treated with 200 μM of ^99mTc-DT(GSHMe)2 for different time intervals (0, 10, 30 sec, 1, 2, 5, 10, 30 min, 1 and 2 h). After the treatment, cells were centrifuged at 2000 rpm for 5 min and supernatant was carefully removed. Followed by three washes of cold saline and acidic wash buffer, cells were centrifuged to yield the pellet. The pellet was dissolved in 500 μL of lysis buffer. The amount of radioactivity (CPM) in cell lysate was determined by gamma counter. Later, after the activity decayed, total protein from the cells was estimated by BCA method of protein estimation. Absorbance values were determined at 595 nm on a multi plate reader. A standard plot was constructed taking various dilutions of BSA. Drug uptake was calculated and plotted.

Data set [2] addresses T1, GGT on the surface of EAT cells (Mus musculus, UniProt Q60928).
T1 construct: endogenous in cells; host or cells: Ehrlich Ascites tumor (EAT) cells, strain F-3, passaged in BALB/c mice
The data set is described as follows: Cell binding studies on EAT cells (Scatchard). Set-up: species or system mice. To be noted: 2 h, 37°C, Scatchard plot. The procedure: (§1) The specificity of ^99[…])2 to bind externally on tumor cells were examined by receptor binding assays on EAT cells isolated from the ascitic fluid of BALB/c Mice. Cells were diluted to 2 x 10^6 cells per mL and were aliquoted in different micro centrifuge tubes. Cells were washed twice with HBSS and finally resuspended in 1 mL of HBSS. Cells were then treated with various concentration of ^99[…]) for 2 h at 37°C. […] Specific binding was obtained by subtracting nonspecific binding from total binding. At the end of each incubation time, the cells were washed with cold PBS twice and pelleted down. Finally, cells were lysed and cell-associated radioactivity was determined by gamma counting. The total protein content of cells was estimated by Bicinchoninic acid (BCA) method. Similarly the binding experiments were performed on monolayer of BMG-1 cells (2 x 10^6) and were treated with ^99[…]) for 2 h at 37°C. […] Cells were lysed and cell associated radioactivity was determined. The total protein content was determined by BCA method. Scatchard Plot were plotted to determine Kd and Bmax.

A short description of data set [3]: in vivo. The arrangement: species or system mice. As to conditions: BALB/c, mouse, iv, 0.25 mg/kg body weight, total radioactivity. The protocol:
Radiolabeled ^99mTc-DT(GSHMe)2 (0.25 mg/Kg body weight) in a volume of 150 μL (11.1 ± 1.2 MBq) was carefully injected through the tail vein of each BALB/c mice xenografted with EAT Tumors in the hind limb. At 30 min, 1, 2 and 4 h post injection mice were sacrificed and different organs and tissues were dissected out. All the organs and tissues were rinsed in saline, weighed and counted in a gamma counter. Uptake of the radiotracer in each tissue was calculated and expressed as a percentage injected dose per gram of the tissue (% ID/g) and corrected for ^99mTc decay.

On the set-up of data set [4]: species or system mice. To be noted: mouse, in vivo, iv. The procedure: Blood clearance was performed to observe the rate of clearance of drug post administration. Radiolabeled conjugate 0.25 mg/Kg body weight of ^99mTc-DT(GSHMe)2 (22.2 ± 2.8 MBq) was administered intravenously through the tail vein of the mice. Blood samples were withdrawn at different time intervals (5, 15, 30 min, 1, 2 and 24 h). Decay corrected radioactivity is expressed as % ID, assuming a weight based theoretical blood volume as 7% of the body weight.

The target in data set [5] is T2, GGT on the surface of BMG-1 cells (Homo sapiens, UniProt P19440).
T2 construct: endogenous in cells; host or cells: BMG-1 cerebral glioma cells (monolayer)
The data set is described as follows: Cell binding studies on BMG-1 cells (Scatchard). As to conditions: 2 h, 37°C, Scatchard plot. The procedure: as §1

A short description of data set [6]: Log P calculation (octanol/PBS partition). The format is physicochemical. To be noted: pH 7.4. The protocol: The value of partition coefficient of radiolabeled […] calculated and expressed as log P. The radiolabeled […] passed through 0.22 μ filter and approximately 10.2 ± 1.5 MBq of labeled compound was diluted in PBS, pH 7.4. To this equal volume of 1-octanol was added. The mixture was thoroughly vortexed for 10 min and then centrifuged at 5000 rpm for 5 min. […] The measurement was repeated thrice. The partition coefficient (P) was calculated using the following equation wherein, P = (counts in octanol fraction) / (counts in PBS fraction). For each value of P, log P value is calculated.

The subject of data set [7] is BALB/c mice bearing EAT tumor and turpentine oil inflammation. The data set is described as follows: SPECT imaging, tumor versus inflammation. The format is in vivo. To be noted: 2 h post i.v., EAT tumor hind limb, inflammation fore limb. The procedure:
Athymic male mice were xenografted with BMG-1 human tumor cell line (0.1 mL of cell suspension containing ~5 ×10^6 BMG cells) in the flank region of the hind limb. BALB/c mice were inoculated with EAT murine tumor cells (5–6 × 10^6) in the flank region of the right hind limb. An inflammation lesion was induced in the fore limb by intramuscular injection of turpentine oil (100 μL) 48 h before imaging. For Scintigraphy, (n = 6) mice used for imaging, biodistribution studies (n = 32 mice) for two experiments 4 mice/group for 4 time points and blood kinetics (n = 18).
Xenografted experimental models were intravenously administered 0.1mg/Kg body weight ^68Ga-DT(GSHMe)2 (37 ± 2.2 MBq) and 0.25 mg/Kg Body weight ^99mTc-DT(GSHMe)2 (29.6 ± 1.8 MBq) via tail vein for PET and SPECT respectively. Blocking dose of ~ 5 mg/Kg body weight of GSH was administered intravenously in the experimental animal. The acquisition was performed 2 h post injection. The ratios were calculated from counts per pixel of individual ROI (Region of interest) for semi-quantitative analysis to understand the distribution and localization.

For orientation: Km means the substrate concentration at which the rate is half of its maximum. What is called logD is lipophilicity at a set pH, counting ionised and neutral species.

T2 sequence (P19440 1-380 limits assumed): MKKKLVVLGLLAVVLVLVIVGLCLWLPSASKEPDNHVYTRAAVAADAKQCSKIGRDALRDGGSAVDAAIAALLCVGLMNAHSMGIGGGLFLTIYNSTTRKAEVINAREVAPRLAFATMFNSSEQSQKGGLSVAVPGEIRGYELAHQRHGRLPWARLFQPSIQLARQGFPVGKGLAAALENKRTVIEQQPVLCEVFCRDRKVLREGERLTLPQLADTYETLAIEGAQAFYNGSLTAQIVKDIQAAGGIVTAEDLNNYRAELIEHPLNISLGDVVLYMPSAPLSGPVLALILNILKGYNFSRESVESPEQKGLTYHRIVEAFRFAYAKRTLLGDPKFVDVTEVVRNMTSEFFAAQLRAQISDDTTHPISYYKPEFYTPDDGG
T2 sequence (P19440 381-569 limits assumed): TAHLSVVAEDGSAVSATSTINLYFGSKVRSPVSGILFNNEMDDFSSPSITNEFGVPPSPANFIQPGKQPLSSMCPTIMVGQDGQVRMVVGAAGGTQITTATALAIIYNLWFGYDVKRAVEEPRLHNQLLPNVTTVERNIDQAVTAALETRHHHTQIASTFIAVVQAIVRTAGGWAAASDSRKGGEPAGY
T1 sequence (Q60928 1-379 limits assumed): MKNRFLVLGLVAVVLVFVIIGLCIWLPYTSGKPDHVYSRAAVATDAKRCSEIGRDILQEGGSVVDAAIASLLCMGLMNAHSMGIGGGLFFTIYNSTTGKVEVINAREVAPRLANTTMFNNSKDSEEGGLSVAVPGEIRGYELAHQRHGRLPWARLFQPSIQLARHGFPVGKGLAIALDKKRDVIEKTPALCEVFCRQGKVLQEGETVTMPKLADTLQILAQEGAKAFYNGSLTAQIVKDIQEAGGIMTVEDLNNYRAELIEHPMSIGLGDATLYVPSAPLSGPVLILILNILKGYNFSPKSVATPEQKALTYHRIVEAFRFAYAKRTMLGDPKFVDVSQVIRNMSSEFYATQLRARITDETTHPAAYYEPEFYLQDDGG
T1 sequence (Q60928 380-568 limits assumed): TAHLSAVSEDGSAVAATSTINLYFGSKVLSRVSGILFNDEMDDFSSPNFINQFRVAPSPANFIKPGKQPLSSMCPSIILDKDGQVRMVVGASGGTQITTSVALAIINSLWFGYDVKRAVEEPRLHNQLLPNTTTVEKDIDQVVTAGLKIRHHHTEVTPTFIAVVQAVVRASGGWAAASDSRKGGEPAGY

For `CCOC(=O)CNC(=O)[C@H](CS)NC(=O)CC[C@H](NC(=O)CN(CCN(CCN(CC(=O)O)CC(=O)N[C@@H](CCC(=O)N[C@@H](CS)C(=O)NCC(=O)OCC)C(=O)O)CC(=O)O)CC(=O)O)C(=O)O` [99mTc-DT(GSHMe)2, metal not drawn], the “maximal transport rate velocity (Vmax)” value in data set [1] is 0.478 µM/min. Also, in data set [1] (Eadie-Hofstee, read-out: Michaelis constant (Km) of transport), the Michaelis constant (Km) is 2.25 µM. Besides, the results for the Bmax in data set [2] and in data set [5] were 91.02 nM and 17.2 nM, respectively. Moreover, the tissue to tissue ratio at 2 h in data set [3] is 24. Further, in data set [4], the “biological half-life t1/2 (Slow)” value worked out at 15.44. Further, the t1/2 slow in data set [4] turned out to be 15.44 h. For the same compound, the “biological half-life t1/2 (Fast)” value in data set [4] (0.25 mg/kg) stood at 8.8 min. For the same compound, the log distribution coefficient (logD) in data set [6] was -1.31 ± 0.104. For the same compound, the “tracer localisation tumor versus inflammation” value in data set [7] is “substantial amount of radiotracer concentration at tumor site”.
